The target in this data set is PARP1 (UniProt P09874 1-1014). As to the kind of experiment: fluorescence polarization.
PARP1, sequence (P09874 whole entry): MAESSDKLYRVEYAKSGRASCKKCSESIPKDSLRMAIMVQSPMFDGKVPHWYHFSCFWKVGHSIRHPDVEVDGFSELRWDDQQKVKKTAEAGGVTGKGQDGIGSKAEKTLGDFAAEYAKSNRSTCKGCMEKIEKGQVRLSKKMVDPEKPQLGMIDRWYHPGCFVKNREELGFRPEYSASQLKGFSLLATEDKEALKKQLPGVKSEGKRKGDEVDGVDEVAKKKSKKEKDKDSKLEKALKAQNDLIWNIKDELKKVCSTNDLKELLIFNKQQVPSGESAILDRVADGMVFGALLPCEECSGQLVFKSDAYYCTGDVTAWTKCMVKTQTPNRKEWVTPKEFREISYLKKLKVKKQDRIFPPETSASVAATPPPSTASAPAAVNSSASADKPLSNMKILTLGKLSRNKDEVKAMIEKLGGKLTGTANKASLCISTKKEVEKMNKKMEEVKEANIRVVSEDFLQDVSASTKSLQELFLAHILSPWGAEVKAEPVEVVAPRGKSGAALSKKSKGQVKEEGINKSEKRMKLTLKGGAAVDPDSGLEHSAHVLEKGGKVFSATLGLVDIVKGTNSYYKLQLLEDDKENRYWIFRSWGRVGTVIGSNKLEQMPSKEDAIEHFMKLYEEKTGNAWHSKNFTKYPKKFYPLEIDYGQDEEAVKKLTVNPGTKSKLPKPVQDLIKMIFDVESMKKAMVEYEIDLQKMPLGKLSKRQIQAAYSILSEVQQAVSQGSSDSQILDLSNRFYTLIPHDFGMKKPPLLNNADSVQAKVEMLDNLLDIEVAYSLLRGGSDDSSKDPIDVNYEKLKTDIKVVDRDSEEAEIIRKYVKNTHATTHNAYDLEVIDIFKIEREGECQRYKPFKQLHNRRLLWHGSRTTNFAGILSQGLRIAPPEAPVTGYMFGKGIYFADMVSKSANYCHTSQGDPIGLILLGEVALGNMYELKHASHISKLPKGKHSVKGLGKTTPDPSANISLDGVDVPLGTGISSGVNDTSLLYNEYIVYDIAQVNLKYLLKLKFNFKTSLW

For GCTGAGCTTCTGGTGAAGCTCAGCTCGCGGCAGCTGGTGCTGCCGCGA (structured_DNA, internal fluorescein-dT (iFluorT) at position 8) [DNA dumbbell with single-strand break], the Kd was 71 nM.

These data come from publication doi:10.1101/2020.09.15.297887.
